{"source": "the DeepSol protein solubility set"}
{"experiment": "soluble on expression in E. coli; label from the status in PepcDB or PDB records"}
{"sequence": "MSQAHTPSAPLAEVYDVAVVGGGINGVGIAADAAGRGLSVFLCEQHDLAQHTSSASSKLIHGGLRYLEHYEFRLVREALAEREVLLAKAPHIVKPLRFVLPHRPHLRPAWMIRAGLFLYDHLGKREKLPASRGLRFTGSSPLKAEIRRGFEYSDCAVDDARLVVLNAISAREHGAHVHTRTRCVSARRSKGLWHLHLERSDGSLYSIRARALVNAAGPWVARFIQDDLKQKSPYGIRLIQGSHIIVPKLYEGEHAYILQNEDRRIVFAIPYLDRFTMIGTTDREYQGDPAKVAISEEETAYLLQVVNAHFKQQLAAADILHSFAGVRPLCDDESDEPSAITRDYTLSLSAGNGEPPLLSVFGGKLTTYRKLAESALTQLQPFFANLGPAWTAKAPLPGGEQMQSVEALTEQLANRYAWLDRELALRWARTYGTRVWRLLDGVNGEADLGEHLGGGLYAREVDYLCKHEWAQDAEDILWRRSKLGLFLSPSQQVRLGQYLQSEHPHRPRVHAALEHHHHHH", "soluble on expression in E. coli": "soluble"}
{"sequence": "MSLDRNEMLEFAAKLHSHLSPGVALGIKMAQIAYEKLGVNFRGKGLVGIAETAMCLPDALQVVAGTTPGNRNLIVKDYGKLALAIVRFDTREGYRVTIKKEAAKKSELIKKFLYRLGKLNKEEEKRLAEEFLNLEPEYFEVREIRLTIPVGGTKEPIVECEKCGELQPSDYVAEVDGRMVCFMCAGKGYFEEGGSHHHHHH", "soluble on expression in E. coli": "soluble"}
{"sequence": "MFDVVAVGELLIDFLPAGTNENGMPLFSSNPGGAPANVLAMLSKLGAKTAFIGKVGKDGFGQFLKATLDNAGIDTSNLLMSSSEMTTLAFVHLNEKGDRSFSFYRKHCADVSLDAGELDKDLLRTCHFLHFGAVSLTDEPSRTATLEAARIAKEAGAIISYDPNYRPALWSNEHEARKYMLKAVEYADLVKVSEEELWLLAESEDFSKGAHKLLAMGPSVVFVTCGEKGSYVFTGSCKANHCGYDVKVVDTTGAGDAFVGAMLWQLRGMSLEEISQICEQKWGELLAFSNAAGTIVATKKGAIPAMPDLDTINTFMRQFLEEK", "soluble on expression in E. coli": "soluble"}
{"sequence": "MSDVARILKEARDQGRLTALDFAKEIFDDFIELHGDRNFRDDGAVIGGIGRLNGQAVTVVGIQKGKNLQDNLNRNFGQPHPEGYRKALRLMKQAEKFGRSVVTFINTAGAYPGVGAEERGQGEAIARNLMEMSDLKVPIIAIIIGEGGSGGALALAVADKVWMLENTIYSILSPEGFATILWKDGSRSEEAAELMKITSGELLNMGIVDKVIPERGYFTSEIIEAIKTAIVDELAELSQLSTEDLLEARYQRFRKY", "soluble on expression in E. coli": "not soluble"}
{"sequence": "MIKIDNVKKFYTDKVKIGPLDIEIPKAGFTSLIGPNGAGKSTTLLMIGRLLDMDEGQIQVANMDVSESKSKDLAKVLTILRQENHFVTRLTVRQLVGFGRFPYSKGRLTKEDEVIISKYIDFLDLTNLENRYLDELSGGQRQRAYVAMVLCQETEYVLLDEPLNNLDVARSVQMMEHLRRAANEFGRTILTVMHDINFAAKYSDKICAMKDGQIAAFGTVEEVMDSTLLTDIFETRIEIIKGPYGPIAVY", "soluble on expression in E. coli": "not soluble"}
{"sequence": "MGHHHHHHSHIELVCWYMVDRDSIDDEPVDIAFIEGSVSTEEEVELVKKIRENSKIVVAVGACAVQGGVQSWTDKSLEELWRTVYGDAKVKFKPKKAEPVSKYIKVDYNIYGCPPEKRDFLYALGTFL", "soluble on expression in E. coli": "not soluble"}
{"sequence": "MSLATYFMYPSTGGLNTYIAVLKKTLEAQGYTVDVLARKPGPRLHLLSEEINMNTLRKMMSKPLNHYYKKHGQFSEPYIIKQELDRYVFELSSALLPIETYDLIHAQDVVSTRALARVKPAHIPLVTTIHGLYSEERFNRGVIQTKNDHSWKYSLAQEYIGALSADKVIVLTNWMRQRFQDQLNISSHHFETIPNGMFIEEFTNKLTNKTQVHIPESKKFTILCPARLVAEKDHRTLIDAVQLLKKEREDFICLLAGDGELREELEGYCREKEVQDVCLFLGNRNDIPELMNRSDLVVLPSLQENLPFTVMEAQVAGKPLIVSNAGGLPEMVHDGVTGRLFKKRDSRQLAFILKELMDHDEDRQLLGNNAKDWGRSQWSANTFCEKIKTVYAEALEQKKKEPRLMEFESVNRPTYHTLELHRFFEKSLWKKIDQCLPSNYTIPDPAFIKSLTTYEGHHHHHH", "soluble on expression in E. coli": "not soluble"}
{"sequence": "MGHHHHHHSHIEETTMTTQTPAPIQAPSAILPLPGQSVERLCVDPRHRQGPVNLLSDPEQGVEVTGQYEREKAGFSWIEVTFKNPLVWVHASPEHVVVTRNRRSSAYKWKETLFSVMPGLKMTMDKTGLLLLSDPDKVTIGLLFWDGRGEGLRLLLRDTDRFSSHVGGTLGQFYQEVLWGSPAASD", "soluble on expression in E. coli": "not soluble"}
{"sequence": "MIRQRRRALTPEQQQEMGQQAATRMMTYPPVVMAHTVAVFLSFDGELDTQPLIEQLWRAGKRVYLPVLHPFSAGNLLFLNYHPQSELVMNRLKIHEPKLDVRDVLPLSRLDVLITPLVAFDEYGQRLGMGGGFYDRTLQNWQHYKTQPVGYAHDCQLVEKLPVEEWDIPLPAVVTPSKVWEW", "soluble on expression in E. coli": "soluble"}
{"sequence": "GPGSMGQHSAKEFRGSRRGESNSGVFPLGPGHAHVGMGSTKKPLGIHTSAVQNNVLRQRNQHRRVMHEEGGSHPRGQEADGSHGEDIAEEKFPVVIRYAAHDVRSLLSSNEKVYVAVESLNWSKLPMTASEDSFYAIVELPQGPQRFRFVVGETEVVDTAQPIEDIAEGTPLLEPRGDVGHKGETRANVIHVNKALLLTKEDEEVPDDGSGWGQEEIIHKEDRKHPPIMPVHLRYTPVNTPLTAARCALDGFMRTTDEDTVSPENLPIPLSVTVNHVYFQRREDHCVTAMTTRFCNKYSTMVYYSKAEPTASLQ", "soluble on expression in E. coli": "not soluble"}
{"sequence": "MQDLEAELERARELDVATLADAIETIGFECTRCGACCKSEADDPHTATVFPDEVRDVQAAAGAETDRDWRDVARPMPYGLDEDGAGETFEWALQADSCGDCTFYREDDDGTGACSVHGSRPLICQTYPFSVALGGTSQPMGEAVDEAGMVRAHECEGLGRDISRADAEELAGALKARAIRELEEAIDVREAYAPANPEPGATVVHDSEGAKRPDGSAYPNAAALEHHHHHH", "soluble on expression in E. coli": "not soluble"}
{"sequence": "MRVYAIADPHLSRVHPKPMTVFGAGWEGHPEAFFRGWREVVGEEDLVVVPGDISWAMRLSEAIPDLLDLARLPGRKVLLKGNHDYWWPSISRLRAALPPGMYALQNDALVVDGVAVAGTRGWQYPPQTPEDEKVFAREVERLKLSLKALEGQPYRHLVVAFHFPPFGPGGEASPLLELAAGAHPQAIVYGHLHGADPAKLPQSYRGIPLHLVAADALRFRPKLVLEAD", "soluble on expression in E. coli": "soluble"}
{"sequence": "MMGDSVIYYVEQADEPVNRADERARKTFKYFWRELFWERRRIISALDFAMVKVPFFQDGEDGEICEHMWIDDIYFDGLYIYGVLNNEPGELTNVEQGESVCVPVDDISDWMFVCNGIPYGGFTIQAMRGQMTEEERTEHDAAWGIDFGDPGQILLVYEEKEHPENLEE", "soluble on expression in E. coli": "not soluble"}
{"sequence": "MEGERMNAFPSTMMDEELNLWDFLERAAALFGRKEVVSRLHTGEVHRTTYAEVYQRARRLMGGLRALGVGVGDRVATLGFNHFRHLEAYFAVPGMGAVLHTANPRLSPKEIAYILNHAEDKVLLFDPNLLPLVEAIRGELKTVQHFVVMDEKAPEGYLAYEEALGEEADPVRVPERAACGMAYTTGTTGLPKGVVYSHRALVLHSLAASLVDGTALSEKDVVLPVVPMFHVNAWCLPYAATLVGAKQVLPGPRLDPASLVELFDGEGVTFTAGVPTVWLALADYLESTGHRLKTLRRLVVGGSAAPRSLIARFERMGVEVRQGYGLTETSPVVVQNFVKSHLESLSEEEKLTLKAKTGLPIPLVRLRVADEEGRPVPKDGKALGEVQLKGPWITGGYYGNEEATRSALTPDGFFRTGDIAVWDEEGYVEIKDRLKDLIKSGGEWISSVDLENALMGHPKVKEAAVVAIPHPKWQERPLAVVVPRGEKPTPEELNEHLLKAGFAKWQLPDAYVFAEEIPRTSAGKFLKRALREQYKNYYGGA", "soluble on expression in E. coli": "soluble"}
{"sequence": "AHHHHHHGSVKFCPKCGSIMIPDRRRGVFVCRKCGYEEPINPEDTKAYRRTEEVKHRPDEGVVVIEQEVSTLPTAKVTCPKCGHNEAWWWELQTRAGDEPSTIFYKCKKCGYVWRSYE", "soluble on expression in E. coli": "soluble"}
{"sequence": "MGSDKIHHHHHHMEMNDTRRRLIELIAEHHASHPGKKLGIEELSRRAGISRQSFNRYYKDLTDYAAGRKLIGDLVDDTTNAQTKQLINQQQEVMRDLQEQVEHSEIENAKKLKKAMDSYVTSLMVNDLTAHAANSLRITLEKQTVHNLQLKQELTNMEVSLAKAQANAATLAISPTPREGKGEKVKLDVDLSKAVAAFSATKSEDDFEDKKEIALKSLVQSICKLALESKCSIVLFAERYVSRFSSFYDNFSCPDDGLHIIARLPVFYRSELRTFIDKLPPTQNISLYIPYLESASEKKAQRSFYFNSIPKCELDSADEADVIPMTLGLDRIIQFRVKQGD", "soluble on expression in E. coli": "not soluble"}
